This is an account of results in paper PMC12239813.

One may read the Kd as the free concentration of one partner at which half of the binding sites on the other are occupied at equilibrium, for simple one-to-one binding. In general, koff refers to a measure of how fast the partners let go of each other.

The experiment concerns the target human FLT3 receptor (human) (UniProt P36888). Description: SPR.
Chain of UniProt P36888 (P36888 27-993): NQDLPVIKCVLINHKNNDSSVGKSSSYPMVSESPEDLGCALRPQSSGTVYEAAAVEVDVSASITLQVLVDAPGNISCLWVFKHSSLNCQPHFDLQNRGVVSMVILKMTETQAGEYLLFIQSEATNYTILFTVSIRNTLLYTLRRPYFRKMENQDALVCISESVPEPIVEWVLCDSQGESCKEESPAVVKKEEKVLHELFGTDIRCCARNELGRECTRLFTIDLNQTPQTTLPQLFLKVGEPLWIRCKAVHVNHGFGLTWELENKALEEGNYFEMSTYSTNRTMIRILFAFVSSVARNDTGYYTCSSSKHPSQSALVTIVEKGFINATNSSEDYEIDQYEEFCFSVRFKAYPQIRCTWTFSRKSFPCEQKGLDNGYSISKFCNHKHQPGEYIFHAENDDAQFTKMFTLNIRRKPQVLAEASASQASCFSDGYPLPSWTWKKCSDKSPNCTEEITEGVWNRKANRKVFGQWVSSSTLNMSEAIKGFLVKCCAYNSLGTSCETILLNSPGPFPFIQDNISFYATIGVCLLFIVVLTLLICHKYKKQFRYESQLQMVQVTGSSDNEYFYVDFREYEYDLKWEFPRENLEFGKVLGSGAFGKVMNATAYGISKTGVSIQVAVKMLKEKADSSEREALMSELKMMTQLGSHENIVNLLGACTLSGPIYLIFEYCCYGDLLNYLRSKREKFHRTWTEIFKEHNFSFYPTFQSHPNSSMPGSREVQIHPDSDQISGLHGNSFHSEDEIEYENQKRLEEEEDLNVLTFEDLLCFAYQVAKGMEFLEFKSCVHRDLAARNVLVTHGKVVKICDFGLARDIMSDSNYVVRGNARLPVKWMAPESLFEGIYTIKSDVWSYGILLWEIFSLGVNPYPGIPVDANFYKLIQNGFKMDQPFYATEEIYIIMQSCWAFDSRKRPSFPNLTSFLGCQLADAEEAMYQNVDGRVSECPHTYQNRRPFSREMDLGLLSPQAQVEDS

Turning to “human FLT3L protein (from UniProt P49771 27-184) (ligand)”, the dissociation constant Kd is 22.3 nM and the koff was 0.812 s⁻¹.
